The results in this text go back to EP4353742A1 (Todd Pharm Co., Ltd., dated 2024).

The chains are these.
B1: FGF21 variant ① (Gln184Glu & Gln201His & Ala208Thr) (ligand)
chain: DSSPLLQFGGQVRQRYLYTDDAQQTEAHLEIREDGTVGGAADQSPESLLQLKALKPGVIQILGVKTSRFLCQRPDGALYGSLHFDPEACSFRELLLEDGYNVYQSEAHGLPLHLPGNKSPHRDPAPRGPARFLPLPGLPPALPEPPGILAPEPPDVGSSDPLSMVGPSHGRSPSYTS
B2: FGF21 variant ② (Ser195Gly & Pro199Gly & Ser200Gly) (ligand)
chain: DSSPLLQFGGQVRQRYLYTDDAQQTEAHLEIREDGTVGGAADQSPESLLQLKALKPGVIQILGVKTSRFLCQRPDGALYGSLHFDPEACSFRELLLEDGYNVYQSEAHGLPLHLPGNKSPHRDPAPRGPARFLPLPGLPPALPEPPGILAPQPPDVGSSDPLGMVGGGQGRSPSYAS
B3: FGF21 variant ③ (combination of variants ① and ②) (ligand)
chain: DSSPLLQFGGQVRQRYLYTDDAQQTEAHLEIREDGTVGGAADQSPESLLQLKALKPGVIQILGVKTSRFLCQRPDGALYGSLHFDPEACSFRELLLEDGYNVYQSEAHGLPLHLPGNKSPHRDPAPRGPARFLPLPGLPPALPEPPGILAPEPPDVGSSDPLGMVGGGHGRSPSYTS

This experiment has as its target FGFR1c. The experiment in a line: cell-based or functional assay.
On to B1, for which the “EC50 of FGFR1c activation (luciferase reporter, HEK293 cells expressing FGFR1c and β-Klotho), fold increase compared to the wild type” value is 1.73 fold. The same measure for B2: 4.38 fold; for B3: 6.03 fold.
